Results as given in patent publication US20260035475A1 (BIOARCTIC, published 2026).
Substitutions are numbered along the chain they refer to. Names and notes keep the numbering of the source. Values belong to the binder of their own block, whether it stands above or below them.

Legend:
[1] = molecular target: T1, ectodomain of human TfR1 (His10-hTfR1; SEQ ID NO:74) (human, UniProt P02786 89-760); assay: indirect ELISA on coated hTfR1 ectodomain (1 ug/ml), Fab 1:3 dilutions, anti-human IgG F(ab')2-HRP [lower panel]
T1 construct: His-tagged ectodomain; also called ectodomain of hTfR1
T1 sequence (P02786 other isoform, or with tags, fused parts or gaps): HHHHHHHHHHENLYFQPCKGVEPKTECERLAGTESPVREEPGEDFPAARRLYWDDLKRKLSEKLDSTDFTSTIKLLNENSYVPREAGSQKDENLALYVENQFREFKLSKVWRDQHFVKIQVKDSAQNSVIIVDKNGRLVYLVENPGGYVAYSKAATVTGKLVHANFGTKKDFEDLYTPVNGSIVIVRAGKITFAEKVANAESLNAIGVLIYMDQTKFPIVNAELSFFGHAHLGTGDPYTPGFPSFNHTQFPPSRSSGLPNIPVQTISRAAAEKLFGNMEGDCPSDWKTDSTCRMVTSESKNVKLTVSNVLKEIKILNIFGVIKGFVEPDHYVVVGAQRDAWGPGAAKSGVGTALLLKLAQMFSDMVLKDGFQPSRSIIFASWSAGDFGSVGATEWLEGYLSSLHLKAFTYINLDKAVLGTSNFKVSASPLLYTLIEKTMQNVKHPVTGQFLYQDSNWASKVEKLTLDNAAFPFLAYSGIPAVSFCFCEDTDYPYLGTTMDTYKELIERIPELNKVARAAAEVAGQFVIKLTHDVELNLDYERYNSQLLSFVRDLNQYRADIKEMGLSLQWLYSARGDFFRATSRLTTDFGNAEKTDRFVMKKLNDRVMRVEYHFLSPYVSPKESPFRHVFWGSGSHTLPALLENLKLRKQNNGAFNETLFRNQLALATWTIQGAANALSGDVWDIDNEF
Description: For the indirect ELISA, half area 96-well plates (Corning, #3690) were coated with 1 μg/ml recombinant ectodomain of hTfR1 (SEQ ID NO:74) in PBS overnight at 4° C. The coated plates were blocked using Pierce protein-free blocking solution (Thermo Fisher Scientific, #37572) for 1 h at room temperature with shaking and washed four times in PBS containing 0.1% TWEEN-20. Serial dilutions (1:3) of various expressed constructs in incubation buffer (1% BSA, 0.1% TWEEN-20 in PBS) were incubated for 1 h at room temperature. […] Following four wash steps, K-Blue® Aqueous TMB substrate (Neogen, #331177) was added to the wells for 15 min at room temperature before the reaction was stopped with 1:1 dilution of 0.5 M H₂SO₄. The optical density at 450 nm was recorded (Spark, Tecan) and background signal was subtracted before analysis.

[2] = molecular target: T2, chimeric TfR1 consisting of human protease like domain grafted on mouse TfR1 ectodomain (SEQ ID NO:78) (human/mouse chimera); assay: indirect ELISA on coated h/m protease-like domain chimera (1 ug/ml), IgG dilution series; x axis printed 'TfR (ng/ml)' [D]
T2 construct: His-tagged; also called h/m protease-like domain chimera
T2 chain: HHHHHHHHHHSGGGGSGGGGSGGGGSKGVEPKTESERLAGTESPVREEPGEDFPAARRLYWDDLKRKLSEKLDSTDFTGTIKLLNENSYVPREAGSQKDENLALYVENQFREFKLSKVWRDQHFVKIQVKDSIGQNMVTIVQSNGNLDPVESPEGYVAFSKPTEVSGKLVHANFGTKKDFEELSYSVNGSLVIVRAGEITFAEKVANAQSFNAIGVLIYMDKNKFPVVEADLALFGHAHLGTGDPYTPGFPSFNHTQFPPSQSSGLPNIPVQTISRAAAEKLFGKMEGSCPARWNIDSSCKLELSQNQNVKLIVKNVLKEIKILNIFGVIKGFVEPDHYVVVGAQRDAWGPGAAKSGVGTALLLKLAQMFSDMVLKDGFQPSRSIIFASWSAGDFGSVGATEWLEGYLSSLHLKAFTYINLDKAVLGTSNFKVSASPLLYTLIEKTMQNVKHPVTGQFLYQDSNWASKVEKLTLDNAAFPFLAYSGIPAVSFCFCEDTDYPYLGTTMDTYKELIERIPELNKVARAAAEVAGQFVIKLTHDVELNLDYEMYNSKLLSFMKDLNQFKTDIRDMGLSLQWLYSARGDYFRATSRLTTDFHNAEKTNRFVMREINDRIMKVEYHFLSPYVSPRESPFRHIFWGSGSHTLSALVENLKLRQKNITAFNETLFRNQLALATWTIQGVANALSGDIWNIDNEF
Description: Plasma samples serially diluted from a starting dilution of 1/450 or hybridoma supernatants diluted 1/2 were added to the plates (50 μl/well; dilution buffer: PBS with 0.1% BSA and 0.05% TWEEN®-20) and incubated for 2 h at room temperature and then the plates were washed four times. […] After another wash (as above), 50 μl/well TMB substrate (K-Blue® Aqueous, Neogen) was added, and the reaction was stopped after 10-15 min with 50 μl/well of 0.5 M H₂SO₄. The optical density at 450 nm was read using a plate reader (Tecan). The endpoint titers were defined as the dilution above the average of the blank wells (background) plus 3 standard deviations of the blank wells.
The coated plates were then blocked. Dilution series of mouse IgG of the analyzed antibodies were prepared in PBS and incubated on the ELISA plates. Unbound antibodies were then washed off before incubating wells with a HRP-conjugated secondary, anti-mouse-IgG for 1 h. Plates were then washed again before addition of HRP substrate TMB for development and detection of antibody binding to the wells. TMB development was stopped by adding 0.5 M H₂SO₄ to the wells and ELISA responses measured as the OD at 450 nm in an ELISA plate reader.

EC50 (read off the curve) [1]: ~400 nM
B1: h26D3-Fab (humanized 26D3) (Fab, V domains shown)
VH: EVQLVQSGAEVKKPGSSVKVSCKASGYIFTDYNMDWVRQAPGQGLEWIGDINPDYDTTSYNEKFKGRATLTVDKSTSTAYMELSSLRSEDTAVYYCARGGYSGSSYYHPMDYWGQGTLVTVSS
VL: DIQMTQSPSSVSASVGDRVTITCKSSQSLLYSTNQKNYLAWYQQKPGKAPKLLIYWASTRESGVPSRFSGSGSGTDFTLTISSLQPEDFATYYCQQYFIYPRTFGQGTKVEIK
notes: His-tagged Fab

EC50 (read off the curve) [1]: ~1000 nM
B2: h26D3 variant HC10 Fab (VH Y106A) (Fab, V domains shown)
VH: B1 VH with Y106A
VL: B1 VL
notes: Single mutant, His-tagged Fab

binding result [2]: binds
B3: 24B4 (mouse monoclonal antibody) (antibody, V domains shown)
VH: EVQLQQFGAELVKPGTSVKISCKASGYTFTDYNMDWVKQGHGKGLEWIGDINPNYDTTSYSQKFKGKATLTVDKSSSTAYMELRSLTSEDTAVYYCARSEAGNYYWYFDVWGAGTTVTVSS
VL: DIVMSQSPSSLAVSVGEKVTMSCKSSQSLLYSSNRKNYLAWYRQKPGQSPKLLIYWASTRESGVPDRFTGSGSGTDFTLTISSVKAEDLAVYSCQQYYNYPYTFGGGTKLEIK

binding result [2]: binds
B4: 26D3 (mouse monoclonal antibody) (antibody, V domains shown)
VH: EVQLQQFGVELVKPGASVKISCKASGYIFTDYNMDWVKQSHGKSLEWIGDINPDYDTTSYNEKFKGKATLTVDKSSSTAYMELRSLTSEDTAVYYCARGGYSGSSYYHPMDYWGQGTSVTVSS
VL: DIVMSQSPSSLAVSVGEKITMSCKSSQSLLYSTNQKNYLAWYQQKPGQSPELLIYWASTRESGVPDRFTGSGSGTDFTLTISNVRAEDLAVYYCQQYFIYPRTFGGGTKLEIK
